± gives the standard deviation of the averaged measurements.
Assay: total protein half-life in vivo (active degradation + dilution); higher = more stable protein
[1] = E. coli NCM3722 delta-smpB, growth: N-lim chemostat, doubling time 6 h
[2] = wild type E. coli NCM3722, growth: C-lim chemostat, doubling time 3 h
[3] = wild type E. coli NCM3722, growth: C-lim chemostat, doubling time 6 h
[4] = wild type E. coli NCM3722, growth: C-lim chemostat, doubling time 12 h
[5] = wild type E. coli NCM3722, growth: P-lim chemostat, doubling time 12 h
[6] = E. coli NCM3722 delta-clpP delta-lon delta-hslV, growth: N-lim chemostat, doubling time 6 h
[7] = E. coli NCM3722 delta-clpP, growth: N-lim chemostat, doubling time 6 h
[8] = E. coli NCM3722 delta-hslV, growth: N-lim chemostat, doubling time 6 h
[9] = E. coli NCM3722 delta-lon, growth: N-lim chemostat, doubling time 6 h
[10] = wild type E. coli NCM3722, growth: N-lim chemostat, doubling time 6 h
[11] = wild type E. coli NCM3722, growth: N-lim chemostat, doubling time 12 h
[12] = wild type E. coli NCM3722, growth: P-lim chemostat, doubling time 6 h

Sequence | total protein half-life in vivo [1] | total protein half-life in vivo [2] | total protein half-life in vivo [3] | total protein half-life in vivo [4] | total protein half-life in vivo [5] | total protein half-life in vivo [6] | total protein half-life in vivo [7] | total protein half-life in vivo [8] | total protein half-life in vivo [9] | total protein half-life in vivo [10] | total protein half-life in vivo [11] | total protein half-life in vivo [12]
MSELKISPELLQISPEVQDALKNKKPVVALESTIISHGMPFPQNAQTAIEVEETIRKQGAVPATIAIIGGVMKVGLSKEEIELLGREGHNVTKVSRRDLPFVVAAGKNGATTVASTMIIAALAGIKVFATGGIGGVHRGAEHTFDISADLQELANTNVTVVCAGAKSILDLGLTTEYLETFGVPLIGYQTKALPAFFCRTSPFDVSIRLDSASEIARAMVVKWQSGLNGGLVVANPIPEQFAMPEHTINAAIDQAVAEAEAQGVIGKESTPFLLARVAELTGGDSLKSNIQLVFNNAILASEIAKEYQRLAG | 1.52 ± 0.068 h | 2.56 ± 0.11 h | 4.42 ± 0.53 h | 6.33 ± 0.81 h | 4.2 h |  |  |  |  |  |  | 
MSELLSFALFLASVLIYAWKAGRNTWWFAATLTVLGLFVVLNITLFASDYFTGDGINDAVLYTLTNSLTGAGVSKYILPGIGIVLGLTAVFGALGWILRRRRHHPHHFGYSLLALLLALGSVDASPAFRQITELVKSQSRDGDPDFAAYYKEPSKTIPDPKLNLVYIYGESLERTYFDNEAFPDLTPELGALKNEGLDFSHTQQLPGTDYTIAGMVASQCGIPLFAPFEGNASASVSSFFPQNICLGDILKNSGYQNYFVQGANLRFAGKDVFLKSHGFDHLYGSEELKSVVADPHYRNDWGFYDDTVLDEAWKKFEELSRSGQRFSLFTLTVDTHHPDGFISRTCNRKKYDFDGKPNQSFSAVSCSQENIATFINKIKASPWFKDTVIVVSSDHLAMNNTAWKYLNKQDRNNLFFVIRGDKPQQETLAVKRNTMDNGATVLDILGGDNYLGLGRSSLSGQSMSEIFLNIKEKTLAWKPDIIRLWKFPKEMKEFTIDQQKNMIAFSGSHFRLPLLLRVSDKRVEPLPESEYSAPLRFQLADFAPRDNFVWVDRCYKMAQLWAPELALSTDWCVSQGQLGGQQIVQHVDKTTWQGKTAFKDTVIDMARYKGNVDTLKIVDNDIRYKADSFIFNVAGAPEEVKQFSGISRPESWGRWSNAQLGDEVKIEYKHPLPKKFDLVITAKAYGNNASRPIPVRVGNEEQTLVLGNEVTTTTLHFDNPTDADTLVIVPPEPVSTNEGNILGHSPRKLGIGMVEIKVVEREG | 3.47 ± 0.035 h | 2.17 ± 0.05 h | 2.99 ± 0.12 h | 3.93 ± 0.84 h |  | 4.02 ± 0.17 h | 2.98 ± 0.2 h | 3.42 ± 0.56 h | 4.63 ± 0.46 h | 3.35 ± 0.42 h | 4.45 ± 0.4 h | 
MSEMTPREIVSELDKHIIGQDNAKRSVAIALRNRWRRMQLNEELRHEVTPKNILMIGPTGVGKTEIARRLAKLANAPFIKVEATKFTEVGYVGKEVDSIIRDLTDAAVKMVRVQAIEKNRYRAEELAEERILDVLIPPAKNNWGQTEQQQEPSAARQAFRKKLREGQLDDKEIEIDLAAAPMGVEIMAPPGMEEMTSQLQSMFQNLGGQKQKARKLKIKDAMKLLIEEEAAKLVNPEELKQDAIDAVEQHGIVFIDEIDKICKRGESSGPDVSREGVQRDLLPLVEGCTVSTKHGMVKTDHILFIASGAFQIAKPSDLIPELQGRLPIRVELQALTTSDFERILTEPNASITVQYKALMATEGVNIEFTDSGIKRIAEAAWQVNESTENIGARRLHTVLERLMEEISYDASDLSGQNITIDADYVSKHLDALVADEDLSRFIL [P0A6H5] | 4.21 ± 0.085 h | 2.95 ± 0.36 h | 5.94 ± 0.93 h | 10.3 ± 0.44 h | 10.98 ± 0.036 h | 5.09 ± 0.28 h | 5.18 ± 0.56 h | 4.46 ± 0.12 h | 5.23 ± 0.29 h | 4.79 ± 0.11 h | 8.11 ± 0.2 h | 5.29 ± 0.054 h
MSENSIRLTQYSHGAGCGCKISPKVLETILHSEQAKFVDPNLLVGNETRDDAAVYDLGNGTSVISTTDFFMPIVDNPFDFGRIAATNAISDIFAMGGKPIMAIAILGWPINKLSPEIAREVTEGGRYACRQAGIALAGGHSIDAPEPIFGLAVTGIVPTERVKKNSTAQAGCKLFLTKPLGIGVLTTAEKKSLLKPEHQGLATEVMCRMNIAGASFANIEGVKAMTDVTGFGLLGHLSEMCQGAGVQARVDYEAIPKLPGVEEYIKLGAVPGGTERNFASYGHLMGEMPREVRDLLCDPQTSGGLLLAVMPEAENEVKATAAEFGIELTAIGELVPARGGRAMVEIR | 2.76 ± 0.077 h | 3.01 ± 0.23 h | 4.95 ± 0.13 h | 8.899 ± 0.067 h | 10.1 ± 0.65 h | 3.58 ± 0.34 h | 2.94 ± 0.2 h | 2.5242 ± 0.00055 h | 3.85 ± 0.73 h | 2.816 ± 0.0089 h | 3.67 ± 0.27 h | 5.34 ± 0.23 h
MSEPQRLFFAIDLPAEIREQIIHWRATHFPPEAGRPVAADNLHLTLAFLGEVSAEKEKALSLLAGRIRQPGFTLTLDDAGQWLRSRVVWLGMRQPPRGLIQLANMLRSQAARSGCFQSNRPFHPHITLLRDASEAVTIPPPGFNWSYAVTEFTLYASSFARGRTRYTPLKRWALTQ | 4.66 ± 0.56 h | 3.11 h | 6.25 ± 0.27 h | 11 h | 11.33 ± 0.097 h | 5.3 ± 0.55 h | 4.8 h |  |  | 5.03 ± 0.89 h | 8.49 ± 0.71 h | 5.55 ± 0.13 h
